The target of assay [1] is T1, C-terminally FLAG-tagged human Gas6 recombinant protein (hGas6-F) (human, UniProt Q14393 31-678, gamma-carboxylated glutamic acid residues in the Gla domain (producer cells co-express rat VKOR and human GGCX); positions not given).
T1 construct: also called human Gas6-F; human Gas6 protein
T1 sequence: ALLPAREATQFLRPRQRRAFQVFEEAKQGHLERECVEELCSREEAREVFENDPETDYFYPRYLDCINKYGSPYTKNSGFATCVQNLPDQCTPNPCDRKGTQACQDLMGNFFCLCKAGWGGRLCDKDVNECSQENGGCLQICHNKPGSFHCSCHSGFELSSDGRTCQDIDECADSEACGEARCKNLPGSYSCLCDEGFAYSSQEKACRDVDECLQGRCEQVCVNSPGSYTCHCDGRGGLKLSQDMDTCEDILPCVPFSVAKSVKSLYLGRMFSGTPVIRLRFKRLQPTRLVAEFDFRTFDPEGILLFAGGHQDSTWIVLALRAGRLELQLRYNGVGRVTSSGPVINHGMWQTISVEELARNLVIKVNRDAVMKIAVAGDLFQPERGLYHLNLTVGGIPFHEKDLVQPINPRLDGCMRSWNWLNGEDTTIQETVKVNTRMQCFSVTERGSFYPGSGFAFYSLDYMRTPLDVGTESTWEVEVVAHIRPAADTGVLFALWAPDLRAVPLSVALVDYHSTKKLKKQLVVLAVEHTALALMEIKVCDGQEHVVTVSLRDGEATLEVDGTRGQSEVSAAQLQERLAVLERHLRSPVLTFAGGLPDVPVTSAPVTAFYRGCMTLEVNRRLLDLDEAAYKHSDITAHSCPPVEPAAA
In words: ELISA, Gas6-F captured by anti-FLAG, biotinylated antibody. How it is done:
After removal of the immobilization solution, 1% BSA-PBS (manufactured by Nacalai Tesque, Inc.) was added thereto at 300 μL/well, and the plate was left standing at room temperature for 1 hour for blocking and washed five times with Tween 20-PBS (manufactured by Wako Pure Chemical Industries Ltd.).
(§1) Each antibody solution was dispensed thereto at 50 μL/well, and the plate was left standing at room temperature for 1 hour. This plate was washed five times with Tween 20-PBS. Then, Streptavidin HRP Conjugate (manufactured by R&D Systems, Inc.) diluted 200-fold with 1% BSA-PBS was dispensed thereto at 50 μL/well, and the plate was left standing at room temperature for 1 hour. This plate was washed five times with Tween 20-PBS, and TMB (manufactured by Sigma-Aldrich Co. LLC) was added thereto at 50 μL/well and reacted. At an appropriate point in time, the reaction was terminated by the addition of 1 N hydrochloric acid (manufactured by Wako Pure Chemical Industries Ltd.) at 50 μL/well. The absorbance at a sample wavelength of 450 nm and a reference wavelength of 570 nm (450 nm-570 nm) was measured using a plate reader.
In general terms: ELISA stands for enzyme-linked immunosorbent assay.

In assay [2] the target is T2, human protein S (derived from human serum; Enzyme Research Laboratories) (human, UniProt P07225 42-676).
T2 construct: Homologue of Gas6 used as specificity control
T2 sequence (looked up): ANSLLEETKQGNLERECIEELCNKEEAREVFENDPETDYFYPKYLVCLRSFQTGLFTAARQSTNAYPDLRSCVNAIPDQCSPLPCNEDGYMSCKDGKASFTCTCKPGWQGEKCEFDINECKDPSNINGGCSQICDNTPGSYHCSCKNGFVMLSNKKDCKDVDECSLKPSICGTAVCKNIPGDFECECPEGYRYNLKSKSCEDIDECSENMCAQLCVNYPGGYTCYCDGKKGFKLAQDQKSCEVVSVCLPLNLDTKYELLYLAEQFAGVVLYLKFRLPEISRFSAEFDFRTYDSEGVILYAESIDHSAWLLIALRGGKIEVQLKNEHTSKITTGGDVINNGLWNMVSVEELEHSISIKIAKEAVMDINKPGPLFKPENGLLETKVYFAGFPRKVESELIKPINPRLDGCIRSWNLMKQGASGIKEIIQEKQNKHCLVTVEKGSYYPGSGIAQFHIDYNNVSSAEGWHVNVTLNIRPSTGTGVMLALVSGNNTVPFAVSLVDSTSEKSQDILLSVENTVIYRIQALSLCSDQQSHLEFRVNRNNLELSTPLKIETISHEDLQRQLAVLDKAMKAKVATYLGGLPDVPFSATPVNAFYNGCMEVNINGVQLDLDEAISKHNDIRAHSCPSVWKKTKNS
Kind of assay: ELISA: human protein S coated directly on the plate (2 µg/mL); biotinylated test antibody; streptavidin-HRP/TMB (Example 6, method of Example 5(5)) [F]. How it is done: First, a 2 μg/mL solution of the antigen (prepared from each antigen with PBS (manufactured by Nacalai Tesque, Inc.)) was dispensed at 50 μL/well to a 96-well plate for ELISA (manufactured by Nalge Nunc International), and the plate was left standing overnight at 4° C. for adsorption. The plate was washed five times with Tween 20-PBS. Then, 1% BSA-PBS (manufactured by Nacalai Tesque, Inc.) was added thereto at 300 μL/well, and the plate was left standing at room temperature for 1 hour for blocking and washed five times with Tween 20-PBS (manufactured by Wako Pure Chemical Industries Ltd.). Next, the hybridoma culture supernatant was dispensed thereto as a test substance at 50 μL/well, and the plate was left standing at room temperature for 1 hour and then washed five times with Tween 20-PBS. Next, polyclonal goat anti-mouse immunoglobulins/HRP (Dako Denmark A/S, P0447) diluted 2000-fold with 1% BSA-PBS was dispensed thereto at 50 μL/well, and the plate was left standing at room temperature for 1 hour. The plate was washed five times with Tween 20-PBS, and TMB (manufactured by Sigma-Aldrich Co. LLC) was added thereto at 50 μL/well and reacted. At an appropriate point in time, the reaction was terminated by the addition of 1 N hydrochloric acid (manufactured by Wako Pure Chemical Industries Ltd.) at 50 μL/well. The absorbance at a sample wavelength of 450 nm and a reference wavelength of 570 nm (450 nm-570 nm) was measured using a plate reader (Spectra Max, manufactured by Molecular Devices, LLC).
The binding activity of the obtained antibodies against human protein S was measured in the same way as in Example 5(5). […] The secondary detection reagent used was Streptavidin HRP Conjugate (manufactured by R&D Systems, Inc.) diluted 200-fold with 1% BSA-PBS.

Assay [3] has as its target T3, hGas6-FH-L314A, Q315A, P316A (alanine substitution variant) (human, UniProt Q14393 1-678).
T3 construct: Limits of the deletion derived as for hGas6-FH; also called alanine variant
T3 chain: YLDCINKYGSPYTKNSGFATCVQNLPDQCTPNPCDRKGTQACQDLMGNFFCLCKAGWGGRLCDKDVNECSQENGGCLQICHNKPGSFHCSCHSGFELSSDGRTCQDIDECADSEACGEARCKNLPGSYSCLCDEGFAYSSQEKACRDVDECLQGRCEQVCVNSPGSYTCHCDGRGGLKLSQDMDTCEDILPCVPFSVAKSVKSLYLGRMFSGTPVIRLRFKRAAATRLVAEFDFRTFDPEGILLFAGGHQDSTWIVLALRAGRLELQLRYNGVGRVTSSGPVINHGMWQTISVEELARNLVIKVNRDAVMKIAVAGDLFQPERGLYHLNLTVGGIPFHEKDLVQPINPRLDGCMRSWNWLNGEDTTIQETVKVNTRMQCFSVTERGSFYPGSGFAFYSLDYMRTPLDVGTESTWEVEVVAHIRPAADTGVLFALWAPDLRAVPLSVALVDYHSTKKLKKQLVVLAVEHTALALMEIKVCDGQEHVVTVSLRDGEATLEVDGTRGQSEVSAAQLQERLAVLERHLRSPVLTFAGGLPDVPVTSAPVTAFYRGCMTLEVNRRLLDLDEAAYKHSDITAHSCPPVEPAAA
In words: ELISA, variant captured by anti-FLAG, biotinylated antibody. The protocol: First, 2 μg/mL anti-FLAG antibody [Monoclonal ANTI-FLAG M2 antibody produced in mouse (manufactured by Sigma-Aldrich Co. LLC) diluted with PBS (manufactured by Nacalai Tesque, Inc.)] was dispensed at 50 μL/well to a 96-well plate for ELISA (manufactured by Nalge Nunc International), and the plate was left standing overnight at 4° C. for adsorption. After removal of the immobilization solution, 1% BSA-PBS (manufactured by Nacalai Tesque, Inc.) was added thereto at 300 μL/well, and the plate was left standing at room temperature for 1 hour for blocking and washed five times with Tween 20-PBS (manufactured by Wako Pure Chemical Industries Ltd.).
as §1, with “At an appropriate point in time, the reaction was terminated by the addition of 1 N hydrochloric acid (manufactured by Wako Pure Chemical Industries Ltd.) at 50 μL/well.” left out

B1: CNTO antibody (anti-Gas6 monoclonal antibody WG1 of U.S. Pat. No. 7,547,767, remade) (antibody, V domains shown)
VH: QVQLVESGGGVVQPGRSLRLSCAASGFTFSSYGMHWVRQAPGKGLEWVAVIWYDGSNKYYADSVKGRFTISRDNSKNTLYLQMNSLRAEDTAMYFCAREGFYYDILTAYSLEYFQHWGQGTLVTVSS
VL: EIVLTQSPDFQSVTPKEKVTITCRASQSIGSSLHWYQQKPDQSPKLLIKYASQSFSGVPSRFSGSGSGTDFTLTINSLEAEDAAAYYCHQSSSLPYTFGQGTKLEIK
notes: Expressed from vector pKANTEX93 in CHO; also called CNT0300
B1: in assay [1], the “antibody concentration at which binding activity was detected” value came to 0.04 µg/mL; the “binding activity at 5 µg/mL against the largest activity of KM5320-mKG1 and KM5321-mKG1” value is less than 0.5 fold. Besides, the binding result in assay [2] is on record as “no binding (tested: 5 µg/mL)”.

B2: anti-human Gas6 mouse-rat chimeric antibody KM5320-rKG1 (antibody, V domains shown)
VH: QIQLVQSGPELKKPGETVKISCKASGYTFTNYGMNWVKQAPGKGLKWMGWINTETGEPTYSDDFKGRFAFSLETSATTAYLQINNLRNEDMATYFCAREDGYYGTLDYWGQGTSVTVSS
VL: SIVMTQTPKFLLVSAGDRVTITCKASQSVSNDVAWYQQKPGQSPKVLIYYASNRYTGVPDRFTGSGYGTDFTFTISTVQAEDLAVYFCQQDYSSPWTFGGGTKLEIK
notes: 92 and 94 are not tied in words; also called KM5320-rKG1 antibody
With B2, the binding result in assay [3] is “no binding”.

B3: anti-human Gas6 mouse-rat chimeric antibody KM5321-rKG1 (antibody, V domains shown)
VH: QIQLVQSGPELKKPGETVKISCRASGYTFTNYGMNWVKQAPGKGLKWMGWINTNTGEPTYTEEFKGRFAFSLETSATTAYLQINDLKNEDTATYFCARDEGWFVYWGQGTLITVSA
VL: ETTVTQSPASLSVATGEKVTIRCITSTDIDDDMNWYQQKPGEPPKLLISEGNTLRPGVPSRFSSSGYGTDFVFTIENTLSEDVADYYCLQTDSVPLTFGAGTKLELK
notes: 96 and 98 are not tied in words; also called KM5321-rKG1 antibody
In the case of B3, the binding result in assay [3] is listed as “no binding”.

(Values after patent US20180339041A1 (Kyowa Kirin, published 2018).)
